Experimental findings from US7186551B1, “3′-phosphoadenosine -5′-phosphosulfate synthetase 2 (PAPSS2) sequence variants” (Mayo Foundation for Medical Education and Research, priority 2001, dated 2007) are described below.

For this experiment, the target named is T1, PAPSS2 (Homo sapiens, UniProt O95340).
T1 construct: the wild-type full-length open reading frame (ORF) of the human PAPSS2 cDNA; made in house; host or cells: COS-1 or HepG2 cells, transient transfection; cytosol not purified
T1 sequence (O95340 1-614 R426C): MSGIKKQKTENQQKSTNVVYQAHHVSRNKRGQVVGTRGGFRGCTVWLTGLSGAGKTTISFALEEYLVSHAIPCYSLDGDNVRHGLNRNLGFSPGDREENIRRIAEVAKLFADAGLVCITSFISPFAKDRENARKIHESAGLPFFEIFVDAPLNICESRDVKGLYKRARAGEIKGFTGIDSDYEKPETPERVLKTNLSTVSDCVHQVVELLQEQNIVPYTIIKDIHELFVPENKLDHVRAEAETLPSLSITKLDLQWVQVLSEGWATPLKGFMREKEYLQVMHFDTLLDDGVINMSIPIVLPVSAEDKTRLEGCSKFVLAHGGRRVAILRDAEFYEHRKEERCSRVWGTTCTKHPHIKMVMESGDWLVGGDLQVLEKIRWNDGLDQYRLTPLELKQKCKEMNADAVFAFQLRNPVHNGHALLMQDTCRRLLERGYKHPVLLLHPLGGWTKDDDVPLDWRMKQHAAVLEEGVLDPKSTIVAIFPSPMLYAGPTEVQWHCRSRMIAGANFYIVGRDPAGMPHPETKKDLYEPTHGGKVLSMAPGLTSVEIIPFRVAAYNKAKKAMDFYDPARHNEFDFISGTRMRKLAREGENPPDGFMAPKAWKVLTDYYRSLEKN
Kind of experiment: PAPSS activity of cells transfected with wild type PAPSS2 construct versus empty vector / endogenous activity. The format is biochemical. The note with it: loxP-modified p91023(b) vector, COS-1 cells. As to the method:
Initial expression studies were performed with the commercially available pcDNA4/HisMax-E (pcDNA4) acceptor vector (Invitrogen). Specifically, the pUni donor vector, with and without the PAPSS2 cDNA insert, was combined with the pcDNA4 acceptor vector by Cre recombinase through the loxP sites present in both donor and acceptor vectors. The resultant fusion constructs (pUni/pcDNA4) then were used to transfect either COS-1 or HepG2 cells. However, the construct with the wild type PAPSS2 cDNA insert expressed only about 2-fold higher PAPSS activity in both COS-1 and HepG2 cells than did the control “empty” pUni-pcDNA4. This low signal/noise ratio was due in part to the high levels of endogenous PAPSS activity in mammalian cells. Obviously, this situation would have made it difficult to study the functional significance of PAPSS2 non-synonymous cSNPs.
The loxP site required for Cre recombinase-mediated recombination thus was adapted for cloning into the p91023(b) cloning site so a recombination approach could be used to clone PAPSS2 cDNAs into this vector. A 133 base pair pcDNA4 DNA segment (nucleotides 1080–1212) containing the N-terminal His-tag and the loxP site was amplified by PCR, and this amplicon was ligated into the EcoRI site of p91023(b). As a result, the loxP-modified p91023(b) acceptor vector was also able to add an N-terminal His-tag to the expressed protein. […]

B1: wild type: reference human PAPSS2 polypeptide (SEQ ID NO:9, GenBank AF091242), recombinantly expressed in COS-1 cells (protein, listed as Homo sapiens)
chain: MSGIKKQKTENQQKSTNVVYQAHHVSRNKRGQVVGTRGGFRGCTVWLTGLSGAGKTTISFALEEYLVSHAIPCYSLDGDNVRHGLNRNLGFSPGDREENIRRIAEVAKLFADAGLVCITSFISPFAKDRENARKIHESAGLPFFEIFVDAPLNICESRDVKGLYKRARAGEIKGFTGIDSDYEKPETPERVLKTNLSTVSDCVHQVVELLQEQNIVPYTIIKDIHELFVPENKLDHVRAEAETLPSLSITKLDLQWVQVLSEGWATPLKGFMREKEYLQVMHFDTLLDDGVINMSIPIVLPVSAEDKTRLEGCSKFVLAHGGRRVAILRDAEFYEHRKEERCSRVWGTTCTKHPHIKMVMESGDWLVGGDLQVLEKIRWNDGLDQYRLTPLELKQKCKEMNADAVFAFQLRNPVHNGHALLMQDTCRRLLERGYKHPVLLLHPLGGWTKDDDVPLDWRMKQHAAVLEEGVLDPKSTIVAIFPSPMLYAGPTEVQWHCRSRMIAGANFYIVGRDPAGMPHPETKKDLYEPTHGGKVLSMAPGLTSVEIIPFRVAAYNKAKKAMDFYDPARHNEFDFISGTRMRKLAREGENPPDGFMAPKAWKVLTDYYRSLEKN
Turning to B1, the “increase in PAPSS activity over basal endogenous activity” value is recorded as “greater than 7 fold”.
